# Laboratory results reported in patent publication US20090018093.
# Test system: Immunoglobulin E (IgE) (Homo sapiens), P01854-1
# Experiment: filter
# Conditions: RT
# [1] = 2'-OMe/2'-deoxy mix, 3:21 pair changed, DPBS Mg/Ca, 0.1 mg/mL BSA
# Immunoglobulin E (IgE) (Homo sapiens), P01854-1, sequence (P01854 other isoform, or with tags, fused parts or gaps): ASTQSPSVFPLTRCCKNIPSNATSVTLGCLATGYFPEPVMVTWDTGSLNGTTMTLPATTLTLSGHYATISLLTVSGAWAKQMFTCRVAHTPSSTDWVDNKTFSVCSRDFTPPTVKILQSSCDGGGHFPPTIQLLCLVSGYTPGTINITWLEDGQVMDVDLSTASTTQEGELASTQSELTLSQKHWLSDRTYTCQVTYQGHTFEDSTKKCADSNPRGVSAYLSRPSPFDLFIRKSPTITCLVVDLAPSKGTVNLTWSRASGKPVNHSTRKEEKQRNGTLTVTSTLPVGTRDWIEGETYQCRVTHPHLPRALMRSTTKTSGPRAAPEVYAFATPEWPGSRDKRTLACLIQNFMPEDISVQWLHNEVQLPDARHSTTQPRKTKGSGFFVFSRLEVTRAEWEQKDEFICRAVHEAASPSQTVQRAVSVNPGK
sequence,measurement,setting,value
AGACUGGGGACCCAUGGGGGUCU [ARC1248],Kd,[1],38 nM
AGACUGGGGACCCAUGGGGGUCU [ARC1249],Kd,[1],130 nM
AGCCNUGGGNGACCCAUNNNGNNGNNGCUN [ARC2972],Kd,"ARC1666 chemistry + PS 4-5, 3' idT, DPBS Mg/Ca, BSA",0.05 nM
AGCCUGGGGACCCAUGGGGGG [ARC2345],Kd,"ARC1666 pattern without 3' idT [dI (written G) at 16,18,20, 2'-OMe 1-5,7,10-15,17, deoxy 6,8,9,16,18-21, PS 8/9,15/16,16/17,18/19,20/21, no 3' idT], dPBS + BSA",29.3 nM
AGCCUGGGGACCCAUGGGGGGC [ARC2344],Kd,"ARC1666 pattern without 3' idT [dI (written G) at 16,18,20, 2'-OMe 1-5,7,10-15,17,22, deoxy 6,8,9,16,18-21, PS 8/9,15/16,16/17,18/19,20/21, no 3' idT], dPBS + BSA",0.41 nM
AGCCUGGGGACCCAUGGGGGGCU [ARC902],Kd,"dRmY (2'-OMe C,U), 7-deaza-dG2 [7-deaza-dG at 2, 2'-OMe C3,C4,U5,C11,C12,C13,U15,C22,U23, A,G 2'-deoxy], DPBS Mg/Ca, 0.1 mg/mL BSA",9 nM
AGCCUGGGGACCCAUGGGGGGCU [ARC903],Kd,"dRmY (2'-OMe C,U), 7-deaza-dG6 [7-deaza-dG at 6, 2'-OMe C3,C4,U5,C11,C12,C13,U15,C22,U23, A,G 2'-deoxy], DPBS Mg/Ca, 0.1 mg/mL BSA",14 nM
AGCCUGGGGACCCAUGGGGGGCU [ARC904],Kd,"dRmY (2'-OMe C,U), 7-deaza-dG7 [7-deaza-dG at 7, 2'-OMe C3,C4,U5,C11,C12,C13,U15,C22,U23, A,G 2'-deoxy], DPBS Mg/Ca, 0.1 mg/mL BSA",8 nM
AGCCUGGGGACCCAUGGGGGGCU [ARC905],Kd,"dRmY (2'-OMe C,U), 7-deaza-dG8 [7-deaza-dG at 8, 2'-OMe C3,C4,U5,C11,C12,C13,U15,C22,U23, A,G 2'-deoxy], DPBS Mg/Ca, 0.1 mg/mL BSA",9 nM
AGCCUGGGGACCCAUGGGGGGCU [ARC906],Kd,"dRmY, 7-deaza-dG at G9 [7-deaza-dG: 9, 2'-OMe: 3-5,11-13,15,22,23, deoxy: all A,G], dPBS Ca/Mg + BSA",88 nM
AGCCUGGGGACCCAUGGGGGGCU [ARC907],Kd,"dRmY (2'-OMe C,U), 7-deaza-dG16 [7-deaza-dG at 16, 2'-OMe C3,C4,U5,C11,C12,C13,U15,C22,U23, A,G 2'-deoxy], DPBS Mg/Ca, 0.1 mg/mL BSA",22 nM
AGCCUGGGGACCCAUGGGGGGCU [ARC908],Kd,"dRmY, 7-deaza-dG at G17 [7-deaza-dG: 17, 2'-OMe: 3-5,11-13,15,22,23, deoxy: all A,G], dPBS Ca/Mg + BSA",3 nM
AGCCUGGGGACCCAUGGGGGGCU [ARC912],Kd,"dRmY, 7-deaza-dG at G21 [7-deaza-dG: 21, 2'-OMe: 3-5,11-13,15,22,23, deoxy: all A,G], dPBS Ca/Mg + BSA",9 nM
AGCCUGGGGACCCAUGGGGGGCU [ARC1250],Kd,"2'-OMe C,U and A1, other A,G deoxy, 3' idT [2'-OMe: 1,3,4,5,11,12,13,15,22,23, 2'-deoxy: 2,6,7,8,9,10,14,16,17,18,19,20,21, 24 = 3' inverted dT], dPBS Ca/Mg + BSA",11 nM
AGCCUGGGGACCCAUGGGGGGCU [ARC1252],Kd,"2'-OMe C,U and G6, other A,G deoxy, 3' idT [2'-OMe: 3,4,5,6,11,12,13,15,22,23, 2'-deoxy: 1,2,7,8,9,10,14,16,17,18,19,20,21, 24 = 3' inverted dT], dPBS Ca/Mg + BSA",98 nM
AGCCUGGGGACCCAUGGGGGGCU [ARC1253],Kd,"2'-OMe C,U and G7, other A,G deoxy, 3' idT [2'-OMe: 3,4,5,7,11,12,13,15,22,23, 2'-deoxy: 1,2,6,8,9,10,14,16,17,18,19,20,21, 24 = 3' inverted dT], dPBS Ca/Mg + BSA",2 nM
AGCCUGGGGACCCAUGGGGGGCU [ARC1254],Kd,"2'-OMe C,U and G8, other A,G deoxy, 3' idT [2'-OMe: 3,4,5,8,11,12,13,15,22,23, 2'-deoxy: 1,2,6,7,9,10,14,16,17,18,19,20,21, 24 = 3' inverted dT], dPBS Ca/Mg + BSA",24 nM
AGCCUGGGGACCCAUGGGGGGCU [ARC1255],Kd,"2'-OMe G9 and all C,U, rest 2'-deoxy, 3' idT [2'-OMe at 3,4,5,9,11,12,13,15,22,23, 3'-idT at 24], DPBS Mg/Ca, 0.1 mg/mL BSA",8 nM
AGCCUGGGGACCCAUGGGGGGCU [ARC1256],Kd,"2'-OMe C,U and A10, other A,G deoxy, 3' idT [2'-OMe: 3,4,5,10,11,12,13,15,22,23, 2'-deoxy: 1,2,6,7,8,9,14,16,17,18,19,20,21, 24 = 3' inverted dT], dPBS Ca/Mg + BSA",0.4 nM
AGCCUGGGGACCCAUGGGGGGCU [ARC1257],Kd,"2'-OMe A14 and all C,U, rest 2'-deoxy, 3' idT [2'-OMe at 3,4,5,11,12,13,14,15,22,23, 3'-idT at 24], DPBS Mg/Ca, 0.1 mg/mL BSA",6 nM
AGCCUGGGGACCCAUGGGGGGCU [ARC1258],Kd,"2'-OMe C,U and G16, other A,G deoxy, 3' idT [2'-OMe: 3,4,5,11,12,13,15,16,22,23, 2'-deoxy: 1,2,6,7,8,9,10,14,17,18,19,20,21, 24 = 3' inverted dT], dPBS Ca/Mg + BSA",15 nM
AGCCUGGGGACCCAUGGGGGGCU [ARC1259],Kd,"2'-OMe G17 and all C,U, rest 2'-deoxy, 3' idT [2'-OMe at 3,4,5,11,12,13,15,17,22,23, 3'-idT at 24], DPBS Mg/Ca, 0.1 mg/mL BSA",5 nM
AGCCUGGGGACCCAUGGGGGGCU [ARC1260],Kd,"2'-OMe C,U and G18, other A,G deoxy, 3' idT [2'-OMe: 3,4,5,11,12,13,15,18,22,23, 2'-deoxy: 1,2,6,7,8,9,10,14,16,17,19,20,21, 24 = 3' inverted dT], dPBS Ca/Mg + BSA",102 nM
AGCCUGGGGACCCAUGGGGGGCU [ARC1261],Kd,"2'-OMe C,U and G19, other A,G deoxy, 3' idT [2'-OMe: 3,4,5,11,12,13,15,19,22,23, 2'-deoxy: 1,2,6,7,8,9,10,14,16,17,18,20,21, 24 = 3' inverted dT], dPBS Ca/Mg + BSA",63 nM
AGCCUGGGGACCCAUGGGGGGCU [ARC1262],Kd,"2'-OMe C,U and G20, other A,G deoxy, 3' idT [2'-OMe: 3,4,5,11,12,13,15,20,22,23, 2'-deoxy: 1,2,6,7,8,9,10,14,16,17,18,19,21, 24 = 3' inverted dT], dPBS Ca/Mg + BSA",32 nM
AGCCUGGGGACCCAUGGGGGGCU [ARC1263],Kd,"2'-OMe C,U and G21, other A,G deoxy, 3' idT [2'-OMe: 3-5,11-13,15,21-23, deoxy: 1,2,6-10,14,16-20, 24 = 3' inverted dT], dPBS Ca/Mg + BSA",64 nM
AGCCUGGGGACCCAUGGGGGGCU [ARC1264],Kd,"2'-OMe A1,G2,G20,G21 and all C,U, rest 2'-deoxy as printed, 3' idT [2'-OMe A1,G2,C3,C4,U5,C11,C12,C13,U15,G20,G21,C22,U23, rest 2'-deoxy, 3' inverted dT at 24], DPBS Mg/Ca, 0.1 mg/mL BSA",47 nM
AGCCUGGGGACCCAUGGGGGGCU [ARC1332],Kd,"2'-OMe G2,A10,A14 and all C,U, rest 2'-deoxy, 3' idT [2'-OMe G2,C3,C4,U5,A10,C11,C12,C13,A14,U15,C22,U23, 3' inverted dT at 24], DPBS Mg/Ca, 0.1 mg/mL BSA",0.5 nM
AGCCUGGGGACCCAUGGGGGGCU [ARC1333],Kd,"2'-OMe G2,G7,G17 and all C,U, rest 2'-deoxy, 3' idT [2'-OMe G2,C3,C4,U5,G7,C11,C12,C13,U15,G17,C22,U23, 3' inverted dT at 24], DPBS Mg/Ca, 0.1 mg/mL BSA",1.5 nM
AGCCUGGGGACCCAUGGGGGGCU [ARC1334],Kd,"2'-OMe G2,G7,A10,A14,G17 and all C,U, rest 2'-deoxy, 3' idT [2'-OMe G2,C3,C4,U5,G7,A10,C11,C12,C13,A14,U15,G17,C22,U23, 3' inverted dT at 24], DPBS Mg/Ca, 0.1 mg/mL BSA",0.3 nM
AGCCUGGGGACCCAUGGGGGGCU [ARC1548],Kd,"ARC1335 chemistry with dI2, 3' idT [2=dI (G parent), 24=3' inverted dT], DPBS Mg/Ca, 0.1 mg/mL BSA",3.3 nM
AGCCUGGGGACCCAUGGGGGGCU [ARC1562],Kd,"ARC1335 chemistry with dI16, G17 deoxy as printed, 3' idT [16=dI (G parent), 17=deoxy G, 24=3' inverted dT], DPBS Mg/Ca, 0.1 mg/mL BSA",0.6 nM
AGCCUGGGGACCCAUGGGGGGCU [ARC1563],Kd,"ARC1335 chemistry with dI17, 3' idT [17=dI (G parent), 24=3' inverted dT], DPBS Mg/Ca, 0.1 mg/mL BSA",2.2 nM
AGCCUGGGGACCCAUGGGGGGCU [ARC1564],Kd,"ARC1335 chemistry with dI18, 3' idT [18=dI (G parent), 24=3' inverted dT], DPBS Mg/Ca, 0.1 mg/mL BSA",0.5 nM
AGCCUGGGGACCCAUGGGGGGCU [ARC1565],Kd,"ARC1335 chemistry with dI19 as printed, 3' idT [19=dI (G parent), 24=3' inverted dT], DPBS Mg/Ca, 0.1 mg/mL BSA",1.4 nM
AGCCUGGGGACCCAUGGGGGGCU [ARC1566],Kd,"ARC1335 pattern with dI20, 3' idT [dI20 (inosine, parent base G), 3' inverted dT24, rest ARC1335 pattern], dPBS Ca/Mg + BSA",0.1 nM
AGCCUGGGGACCCAUGGGGGGCU [ARC1567],Kd,"ARC1335 pattern with dI21, 3' idT [dI21 (inosine, parent base G), 3' inverted dT24, rest ARC1335 pattern], dPBS Ca/Mg + BSA",3.5 nM
AGCCUGGGGACCCAUGGGGGGCU [ARC2343],Kd,"ARC1666 pattern without 3' idT [dI (written G) at 16,18,20, 2'-OMe 1-5,7,10-15,17,22,23, deoxy 6,8,9,16,18-21, PS 8/9,15/16,16/17,18/19,20/21, no 3' idT], dPBS + BSA",0.09 nM
AGCCUGGGGACCCAUGGGGGGCU [ARC2981],Kd,"ARC1666 pattern plus PS between A14 and U15, 3' idT [dI (written G) at 16,18,20, 2'-OMe 1-5,7,10-15,17,22,23, deoxy 6,8,9,16,18-21, PS 8/9,14/15,15/16,16/17,18/19,20/21, 3' inverted dT left out], dPBS Ca/Mg + BSA",0.02 nM
AGCCUGGGGACCCAUGGGGGGCU [ARC3262],Kd,"ARC1666 pattern with 2'-OMe G8, 3' idT [dI (written G) at 16,18,20, 2'-OMe 1-5,7,8,10-15,17,22,23, deoxy 6,9,16,18-21, PS 8/9,15/16,16/17,18/19,20/21, 3' inverted dT left out], dPBS Ca/Mg + BSA",0.16 nM
AGCCUGGGGACCCAUGGGGGGCU [ARC3263],Kd,"ARC1666 pattern with 2'-OMe G9, 3' idT [dI (written G) at 16,18,20, 2'-OMe 1-5,7,9,10-15,17,22,23, deoxy 6,8,16,18-21, PS 8/9,15/16,16/17,18/19,20/21, 3' inverted dT left out], dPBS Ca/Mg + BSA",0.026 nM
